Assay results taken from patent publication US20200399712A1, “COMPOSITIONS AND METHODS FOR THE DIAGNOSIS AND DETECTION OF TUMORS AND CANCER PROGNOSIS” (priority 2018, published 2020).
Entries after “also recorded” stand apart in the source; their conditions may differ. Marks after values point to notes of the source that are not given here.

Key:
[1] = test system: HPV-16 genome; experiment: qPCR sensitivity against HPV-16 copy number (known-copy HPV-16 DNA among 10 ng normal human DNA); conditions: for reaction under 10 copies of HPV-16 genome / reaction under 30 copies of HPV-16 genome: among 10 ng normal DNA, triplicate qPCR
[2] = test system: HPV-16; experiment: qPCR on 20 ng DNA from saliva samples of HPV-HNSCC patients
Experimental: All samples were run in triplicates.
The sensitivity of detection from saliva 20 ng DNA samples is 32.1% (9/28) in E6 primer-probe sets, 42.9% (12/28) in E7 primer-probe sets, 35.7% (10/28) in “Min-5” primer-probe sets, 46.4% (13/28) in “Max-10” primer-probe sets. The sensitivity of combination of “5” and “10” is 50% (14/28) and that of E6 and E7 is 42.9% (12/28). By the standard curve analysis, the copy numbers that detected by “Max-10” primer-probe sets were the highest in these 4 primer-probe sets. The slope of standard curve is −3.5 in “Min-5” primer-probe sets when delta Rn is plotted against cycle threshold (FIG. 5).

[3] = test system: HPV16 DNA; experiment: CLIA test for HPV16, performance characteristics in plasma
Source text: (§1) These primer/probe sets were adapted for development of a CLIA test for HPV16 DNA detection in plasma and salivary rinses (Table 2). Test performance was improved, so that analytical sensitivity in salivary rinse spike in assays ranges from 2.5-5.0 DNA copies/mL with 100% specificity for the three primer/probe sets that are now part of the component assay, resulting in a five-fold improvement in analytic sensitivity that is in the range of sensitivity found in sequence based liquid biopsy methods (FIG. 23, Table 2). Additionally, the assays can be used quantitatively, with measuring ranges between 2.0 log10-7.0 log10 copies/mL.

[4] = test system: HPV16 DNA; experiment: CLIA test for HPV16, performance characteristics in salivary rinse
Source text: as §1

[5] = test system: HPV DNA; experiment: CLIA HPV test pilot study on saliva rinse samples from HPV-positive HNSCC patients and non-cancer controls; parameters: species or system HPV16; HPV16 DNA measured by CLIA HPV test: unit not given here
Experimental: As a final validation, Applicants a small pilot study was performed on a blinded set of saliva rinse samples from 28 patients with HPV-positive HNSCC and 15 salivary rinses from non-cancer controls. […] The sensitivity increased to 96% when all three sets were used (Table 3).

[6] = test system: HPV-16; experiment: qPCR sensitivity against HPV-HNSCC tumor samples diluted among 10 ng normal human DNA
Experimental: Quantitative real-time polymerase chain reaction (qRT-PCR) was used to examine the threshold in each experiment. qRT-PCR was performed using Quant Studio 6 Flex Real-Time PCR System (Thermo Fisher Scientific). All samples were run in triplicates. HPV-16 viral amplicon copy number estimations were developed using the CaSki cell line. After amplification of the amplicon by PCR, DNA concentration was calculated by weight NanoDrop®, then converted to DNA copy number by calculation based on the molecular weight of the double stranded amplicon. […] In the other 32 HPV-HNSCC cohort, Applicants diluted the tumor sample to 990 pg, 198 pg, 99 pg, 39.6 pg, 7.9 pg, 3.2 pg, and 1.6 pg of amount tumor weight, (correspond to 150, 30, 15, 6, 1.2, 0.6, and 0.3 cells: assumption that 1 tumor cell have 6.6 pg DNA (=3*10^9 (human DNA genome bp)*2 (diploid)*1.67*10^(−24) g (weight/Dalton))) combined with 10 ng normal leukocyte human DNA and compare the threshold of each primer-probe sets.
In this regard, Applicants investigated the other 32 HPV-HNSCC tumor samples. From the assumption that 1 cell tumor DNA contain 6.6 pg DNA, Applicants made the dilution series by DNA derived from normal lymphocyte as described and decide the threshold for each primer-probe set.
Furthermore, to determine whether these designed primer/probe sets also have a high sensitivity in a separate cohort, Applicants performed PCR in a validation cohort of 32 additional primary tumor samples with validated presence of HPV-16. Applicants prepared serial of dilutions of tumor DNA in normal lymphocyte DNA from non-cancer individuals and determined the threshold for each primer/probe set and defined amplification thresholds expressed in number of tumor cells for each sample (Table 5).

[7] = samples tested 3 times, 10 ng DNA from healthy individual
[8] = first template ('... HPV16', word is an image)
[9] = second template (name is an image)
[10] = tumor DNA dilution, fraction of 32 samples

B1: BR E1-5: HPV-16 E1 region primer/probe set, SEQ ID NO: 40-42 (same as SEQ ID NO: 1-3) (nucleic acid)
DNA 1: GCACAATTGGCAGACACTAAT
DNA 2: GCACAATCCTTTACAATTTTTGCC
DNA 3: AGTAATGCAAGTGCCTTTCTAAAAAGTAATTC
modifications: chemistry not given here
[1]
  reaction under 10 copies of HPV-16 genome: consistent detection
  reaction under 30 copies of HPV-16 genome: consistently amplified
[1]; listed as Min-5
  reaction under 10 copies of HPV-16 genome: consistently triplicate reaction; also recorded: could detect
  reaction under 30 copies of HPV-16 genome: react consistently
[1]; [7]
  number of reactions against 10 HPV-16 copies: 3 reactions
  number of reactions under 30 HPV-16 copies: 3 reactions
[2]; 28 HPV-HNSCC saliva samples
  sensitivity of detection from saliva 20 ng DNA samples: 35.7%
[2]; RT-PCR, 20 ng DNA from HPV-HNSCC saliva samples (FIG. 5)
  slope of standard curve (delta Rn plotted against cycle threshold): −3.5
[3]
  Accuracy - Plasma Blind Panel, Negative % Agreement: 100%
  Accuracy - Plasma Blind Panel, Positive % Agreement: 100%
  Accuracy - Plasma Blind Panel, Total % Agreement: 100%
[3]; first template ('... HPV16')
  Measuring Range - Plasma: 2.0-8.5 log10 log10 copies/mL
[3]; [8]
  Limit of Detection - Plasma: 1.5 copies/mL
[3]; [9]
  Limit of Detection - Plasma: 22 copies/mL
  Measuring Range - Plasma: 2.0-6.5 log10 log10 copies/mL
[4]; first template ('... HPV16')
  Measuring Range - Salivary Rinse: 2.0-8.5 log10 log10 copies/mL
[4]; [8]
  Limit of Detection - Salivary rinse: 3 copies/mL
[4]; [9]
  Limit of Detection - Salivary rinse: 12 copies/mL
  Measuring Range - Salivary Rinse: 2.0-6.5 log10 log10 copies/mL
[5]; 28 patients with HPV-positive HNSCC
  sensitivity for the detection of HPV DNA in saliva rinse samples: 79%
[5]; saliva sample from HPV-HNSCC patient # 1
  HPV16 DNA measured by CLIA HPV test: 866000
[5]; saliva sample from HPV-HNSCC patient # 2
  HPV16 DNA measured by CLIA HPV test: 118000
[5]; saliva sample from HPV-HNSCC patient # 3
  HPV16 DNA measured by CLIA HPV test: 47600
[5]; saliva sample from HPV-HNSCC patient # 4
  HPV16 DNA measured by CLIA HPV test: 104000
[5]; saliva sample from HPV-HNSCC patient # 7
  HPV16 DNA measured by CLIA HPV test: 9790
[5]; saliva sample from HPV-HNSCC patient # 8
  HPV16 DNA measured by CLIA HPV test: 3590
[5]; saliva sample from HPV-HNSCC patient # 9
  HPV16 DNA measured by CLIA HPV test: 2600
[5]; saliva sample from HPV-HNSCC patient # 12
  HPV16 DNA measured by CLIA HPV test: 127
[5]; saliva sample from HPV-HNSCC patient # 13
  HPV16 DNA measured by CLIA HPV test: 290
[5]; saliva sample from HPV-HNSCC patient # 14
  HPV16 DNA measured by CLIA HPV test: 114
[5]; saliva sample from HPV-HNSCC patient # 15
  HPV16 DNA measured by CLIA HPV test: 160
[5]; saliva sample from HPV-HNSCC patient # 16
  HPV16 DNA measured by CLIA HPV test: 121
[5]; saliva sample from HPV-HNSCC patient # 17
  HPV16 DNA measured by CLIA HPV test: 67.4
[5]; saliva sample from HPV-HNSCC patient # 18
  HPV16 DNA measured by CLIA HPV test: 15.8
[5]; saliva sample from HPV-HNSCC patient # 19
  HPV16 DNA measured by CLIA HPV test: 61.1
[5]; saliva sample from HPV-HNSCC patient # 20
  HPV16 DNA measured by CLIA HPV test: 30.9
[5]; saliva sample from HPV-HNSCC patient # 21
  HPV16 DNA measured by CLIA HPV test: 25.7
[5]; saliva sample from HPV-HNSCC patient # 22
  HPV16 DNA measured by CLIA HPV test: 2.68
[5]; saliva sample from HPV-HNSCC patient # 23
  HPV16 DNA measured by CLIA HPV test: 1.82
[5]; saliva sample from HPV-HNSCC patient # 24
  HPV16 DNA measured by CLIA HPV test: 14.4
[5]; saliva sample from HPV-HNSCC patient # 25
  HPV16 DNA measured by CLIA HPV test: 2.76
[5]; saliva sample from HPV-HNSCC patient # 27
  HPV16 DNA measured by CLIA HPV test: 2.17
[6]; 32 HPV-HNSCC tumor samples
  sensitivity under 100 cells: 96.9%
[6]; 32 HPV-HNSCC tumor samples, 6.6 pg DNA
  sensitivity under single cells: 28.1%
[6]; 32 HPV-HNSCC tumor samples, 66 pg DNA
  sensitivity under 10 cells: 68.7%
[6]; Sample # 1
  Threshold of tumor cell numbers for HPV-16 detection: 60.0 tumor cells
[6]; Sample # 2
  Threshold of tumor cell numbers for HPV-16 detection: 150.0 tumor cells
[6]; Sample # 3
  Threshold of tumor cell numbers for HPV-16 detection: 30.0 tumor cells
[6]; Sample # 4
  Threshold of tumor cell numbers for HPV-16 detection: 6.0 tumor cells
[6]; Sample # 5
  Threshold of tumor cell numbers for HPV-16 detection: 6.0 tumor cells
[6]; Sample # 6
  Threshold of tumor cell numbers for HPV-16 detection: 15.0 tumor cells
[6]; Sample # 7
  Threshold of tumor cell numbers for HPV-16 detection: 30.0 tumor cells
[6]; Sample # 8
  Threshold of tumor cell numbers for HPV-16 detection: 30.0 tumor cells
[6]; Sample # 9
  Threshold of tumor cell numbers for HPV-16 detection: 1.2 tumor cells
[6]; Sample # 10
  Threshold of tumor cell numbers for HPV-16 detection: 6.0 tumor cells
[6]; Sample # 11
  Threshold of tumor cell numbers for HPV-16 detection: 30.0 tumor cells
[6]; Sample # 12
  Threshold of tumor cell numbers for HPV-16 detection: 30.0 tumor cells
[6]; Sample # 13
  Threshold of tumor cell numbers for HPV-16 detection: 6.0 tumor cells
[6]; Sample # 14
  Threshold of tumor cell numbers for HPV-16 detection: 6.0 tumor cells
[6]; Sample # 15
  Threshold of tumor cell numbers for HPV-16 detection: 6.0 tumor cells
[6]; Sample # 16
  Threshold of tumor cell numbers for HPV-16 detection: 6.0 tumor cells
[6]; Sample # 17
  Threshold of tumor cell numbers for HPV-16 detection: 1.2 tumor cells
[6]; Sample # 18
  Threshold of tumor cell numbers for HPV-16 detection: 0.2 tumor cells
[6]; Sample # 19
  Threshold of tumor cell numbers for HPV-16 detection: 1.2 tumor cells
[6]; Sample # 20
  Threshold of tumor cell numbers for HPV-16 detection: 3.0 tumor cells
[6]; Sample # 21
  Threshold of tumor cell numbers for HPV-16 detection: 0.6 tumor cells
[6]; Sample # 22
  Threshold of tumor cell numbers for HPV-16 detection: 0.3 tumor cells
[6]; Sample # 23
  Threshold of tumor cell numbers for HPV-16 detection: 1.2 tumor cells
[6]; Sample # 24
  Threshold of tumor cell numbers for HPV-16 detection: 0.6 tumor cells
[6]; Sample # 25
  Threshold of tumor cell numbers for HPV-16 detection: 0.3 tumor cells
[6]; Sample # 26
  Threshold of tumor cell numbers for HPV-16 detection: 0.6 tumor cells
[6]; Sample # 27
  Threshold of tumor cell numbers for HPV-16 detection: 0.6 tumor cells
[6]; Sample # 28
  Threshold of tumor cell numbers for HPV-16 detection: 0.6 tumor cells
[6]; Sample # 29
  Threshold of tumor cell numbers for HPV-16 detection: 1.0 tumor cells
[6]; Sample # 30
  Threshold of tumor cell numbers for HPV-16 detection: 15.0 tumor cells
[6]; Sample # 31
  Threshold of tumor cell numbers for HPV-16 detection: 0.6 tumor cells
[6]; Sample # 32
  Threshold of tumor cell numbers for HPV-16 detection: 15.0 tumor cells
[6]; [10]
  Sensitivity, 1 cell: 0.281*
  Sensitivity, 3 cells: 0.438
  Sensitivity, 10 cells: 0.688
  Sensitivity, 30 cells: 0.938*
  Sensitivity, 100 cells: 0.969*
